Assay results: paper PMC11445558, “The molecular dissection of TRIM25’s RNA-binding mechanism provides key insights into its antiviral activity” (Nature Communications, 2024)

How the values were obtained:
TRIM25 CC [1] = molecular target: T1, TRIM25 CC (Homo sapiens, UniProt Q14258 189-379); experiment: ITC; details: mean of replicates 59;61;63; ITC: 20 mM MES pH 6.5, 75 mM NaCl, 0.5 mM TCEP, 20 C; protein NMR: 20 mM sodium phosphate pH 6.5, 150 mM NaCl, 2 mM TCEP, 293 K
TRIM25 CC-PRY/SPRY [2] = molecular target: T2, TRIM25 CC-PRY/SPRY (Homo sapiens, UniProt Q14258 189-630); experiment: ITC; details: mean of replicates 15;29;20;9; ITC: 20 mM MES pH 6.5, 75 mM NaCl, 0.5 mM TCEP, 20 C; protein NMR: 20 mM sodium phosphate pH 6.5, 150 mM NaCl, 2 mM TCEP, 293 K
[3] = molecular target: the molecule itself; experiment: SEC-MALS; 50 µl injected onto Superdex 200 5/150 GL in 20 mM MES, pH 6.5, 75 mM NaCl, 0.5 mM TCEP, 0.3 ml/min, room temperature
TRIM25 PRY/SPRY [4] = molecular target: T3, TRIM25 PRY/SPRY (Homo sapiens, UniProt Q14258 439-630); experiment: NMR; CSPs in binding site 2 only; ITC: 20 mM MES pH 6.5, 75 mM NaCl, 0.5 mM TCEP, 20 C; protein NMR: 20 mM sodium phosphate pH 6.5, 150 mM NaCl, 2 mM TCEP, 293 K; details: protein: recombinant; tags: His-Trx, cleaved (3C); chain copies: 3; hairpin
T3 sequence (Q14258 439-630): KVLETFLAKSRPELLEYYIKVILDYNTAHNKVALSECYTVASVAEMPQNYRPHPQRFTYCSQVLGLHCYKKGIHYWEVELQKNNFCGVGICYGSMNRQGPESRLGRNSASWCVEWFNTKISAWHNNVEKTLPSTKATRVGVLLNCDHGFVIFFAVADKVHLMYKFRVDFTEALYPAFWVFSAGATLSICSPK

TRIM25 CC-PRY/SPRY [5] = molecular target: T2, TRIM25 CC-PRY/SPRY; experiment: ITC; KD1 of two sites, mean of replicates 0.25;0.03;0.02; ITC: 20 mM MES pH 6.5, 75 mM NaCl, 0.5 mM TCEP, 20 C; protein NMR: 20 mM sodium phosphate pH 6.5, 150 mM NaCl, 2 mM TCEP, 293 K; details: protein: recombinant; tags: His-Trx, cleaved (3C); chain copies: 2; hairpin
Target sequence in this assay (Q14258 189-630): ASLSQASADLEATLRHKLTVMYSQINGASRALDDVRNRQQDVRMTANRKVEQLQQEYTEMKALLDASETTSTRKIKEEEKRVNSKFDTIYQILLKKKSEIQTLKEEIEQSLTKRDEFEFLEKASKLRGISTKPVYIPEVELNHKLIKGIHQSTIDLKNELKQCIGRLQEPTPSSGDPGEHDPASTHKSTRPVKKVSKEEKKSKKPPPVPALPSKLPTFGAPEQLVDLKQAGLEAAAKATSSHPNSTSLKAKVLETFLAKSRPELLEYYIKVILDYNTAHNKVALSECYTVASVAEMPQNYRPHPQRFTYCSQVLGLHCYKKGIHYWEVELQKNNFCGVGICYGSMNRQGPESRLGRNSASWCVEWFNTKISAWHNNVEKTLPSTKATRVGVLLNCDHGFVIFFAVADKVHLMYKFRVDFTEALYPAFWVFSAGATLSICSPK

TRIM25 CC-PRY/SPRY [6] = molecular target: T2, TRIM25 CC-PRY/SPRY; experiment: ITC; ITC: 20 mM MES pH 6.5, 75 mM NaCl, 0.5 mM TCEP, 20 C; protein NMR: 20 mM sodium phosphate pH 6.5, 150 mM NaCl, 2 mM TCEP, 293 K; details: protein: recombinant, tags: His-Trx, cleaved (3C), chain copies: 2
Target sequence in this assay (Q14258 189-630): as above

TRIM25 CC-PRY/SPRY [7] = molecular target: T2, TRIM25 CC-PRY/SPRY; experiment: ITC; KD1 of two sites; ITC: 20 mM MES pH 6.5, 75 mM NaCl, 0.5 mM TCEP, 20 C; protein NMR: 20 mM sodium phosphate pH 6.5, 150 mM NaCl, 2 mM TCEP, 293 K; details: protein: recombinant; tags: His-Trx, cleaved (3C); chain copies: 2; hairpin
Target sequence in this assay (Q14258 189-630): as above

TRIM25 CC-PRY/SPRY-m9 [8] = molecular target: T4, TRIM25 CC-PRY/SPRY-m9 (Homo sapiens, UniProt Q14258 189-630, K283A;K285A;K320E;Y323E;H331E;K332E;H505E;K508E;K602E); experiment: ITC; 300 uM RNA, 30 uM protein; ITC: 20 mM MES pH 6.5, 75 mM NaCl, 0.5 mM TCEP, 20 C; protein NMR: 20 mM sodium phosphate pH 6.5, 150 mM NaCl, 2 mM TCEP, 293 K; details: protein: recombinant; tags: His-Trx, cleaved (3C); chain copies: 2; hairpin
TRIM25 PRY/SPRY [9] = molecular target: T3, TRIM25 PRY/SPRY; experiment: ITC; Supplementary Table 1 first row (probably pre-let-7) reads 0.76-0.97 uM; ITC: 20 mM MES pH 6.5, 75 mM NaCl, 0.5 mM TCEP, 20 C; protein NMR: 20 mM sodium phosphate pH 6.5, 150 mM NaCl, 2 mM TCEP, 293 K; details: protein: recombinant; tags: His-Trx, cleaved (3C); chain copies: 3; hairpin
TRIM25 CC-m2 = TRIM25 CC-m2 (Homo sapiens, UniProt Q14258 189-379, K283A;K285A); experiment: ITC; enthalpy reduced about 10-fold; ITC: 20 mM MES pH 6.5, 75 mM NaCl, 0.5 mM TCEP, 20 C; protein NMR: 20 mM sodium phosphate pH 6.5, 150 mM NaCl, 2 mM TCEP, 293 K; details: protein: recombinant; tags: His-Trx, cleaved (3C); chain copies: 2; hairpin
TRIM25 CC-m4 = TRIM25 CC-m4 (Homo sapiens, UniProt Q14258 189-379, K320E;Y323E;H331E;K332E); experiment: ITC; 400 uM RNA, 50 uM protein; ITC: 20 mM MES pH 6.5, 75 mM NaCl, 0.5 mM TCEP, 20 C; protein NMR: 20 mM sodium phosphate pH 6.5, 150 mM NaCl, 2 mM TCEP, 293 K; details: protein: recombinant; tags: His-Trx, cleaved (3C); chain copies: 2; hairpin
TRIM25 PRY/SPRY-m3 = TRIM25 PRY/SPRY-m3 (Homo sapiens, UniProt Q14258 439-630, H505E;K508E;K602E); experiment: as above; details: protein: recombinant; tags: His-Trx, cleaved (3C); chain copies: 3; hairpin
Chain of TRIM25 PRY/SPRY-m3 (Q14258 439-630 H505E/K508E/K602E): as the sequence (Q14258 439-630) above, with H67E, K70E, K164E counted along it

TRIM25 CC [10] = molecular target: T1, TRIM25 CC; experiment: ITC; ITC: 20 mM MES pH 6.5, 75 mM NaCl, 0.5 mM TCEP, 20 C; protein NMR: 20 mM sodium phosphate pH 6.5, 150 mM NaCl, 2 mM TCEP, 293 K; details: protein: recombinant; tags: His-Trx, cleaved (3C); chain copies: 2; hairpin
TRIM25 CC-PRY/SPRY-m9 [11] = molecular target: T4, TRIM25 CC-PRY/SPRY-m9; experiment: ITC; 200 uM RNA, 20 uM protein; ITC: 20 mM MES pH 6.5, 75 mM NaCl, 0.5 mM TCEP, 20 C; protein NMR: 20 mM sodium phosphate pH 6.5, 150 mM NaCl, 2 mM TCEP, 293 K; details: protein: recombinant; tags: His-Trx, cleaved (3C); chain copies: 2; hairpin
TRIM25 PRY/SPRY [12] = molecular target: T3, TRIM25 PRY/SPRY; experiment: NMR; CSPs in binding site 1 only; ITC: 20 mM MES pH 6.5, 75 mM NaCl, 0.5 mM TCEP, 20 C; protein NMR: 20 mM sodium phosphate pH 6.5, 150 mM NaCl, 2 mM TCEP, 293 K; details: protein: recombinant; tags: His-Trx, cleaved (3C); single-stranded
TRIM25 PRY/SPRY [13] = molecular target: T3, TRIM25 PRY/SPRY; experiment: ITC; ITC: 20 mM MES pH 6.5, 75 mM NaCl, 0.5 mM TCEP, 20 C; protein NMR: 20 mM sodium phosphate pH 6.5, 150 mM NaCl, 2 mM TCEP, 293 K; details: protein: recombinant; tags: His-Trx, cleaved (3C); chain copies: 3; stem-loop (called 28-mer duplex RNA)
TRIM25 CC-PRY/SPRY [14] = molecular target: T2, TRIM25 CC-PRY/SPRY; experiment: ITC; KD1 of two sites, mean of replicates 0.015;0.016;0.011; ITC: 20 mM MES pH 6.5, 75 mM NaCl, 0.5 mM TCEP, 20 C; protein NMR: 20 mM sodium phosphate pH 6.5, 150 mM NaCl, 2 mM TCEP, 293 K; details: protein: recombinant; tags: His-Trx, cleaved (3C); chain copies: 2; hairpin with bulge
Target sequence in this assay (Q14258 189-630): as the sequence (Q14258 189-630) above

TRIM25 PRY/SPRY [15] = molecular target: T3, TRIM25 PRY/SPRY; experiment: ITC; mean of replicates 0.3;0.7;0.3;0.2;0.6; DENV-SL in cell; ITC: 20 mM MES pH 6.5, 75 mM NaCl, 0.5 mM TCEP, 20 C; protein NMR: 20 mM sodium phosphate pH 6.5, 150 mM NaCl, 2 mM TCEP, 293 K; details: protein: recombinant; tags: His-Trx, cleaved (3C); chain copies: 3; hairpin with bulge

Lnczc3h7a loop
Kd (TRIM25 CC [1]): 61000 nM
Kd (TRIM25 CC-PRY/SPRY [2]): 18000 nM

B1: TRIM25 CC (aa 189–379) (domain or fragment, human, UniProt Q14258 189-379, looked up)
chain: ASLSQASADLEATLRHKLTVMYSQINGASRALDDVRNRQQDVRMTANRKVEQLQQEYTEMKALLDASETTSTRKIKEEEKRVNSKFDTIYQILLKKKSEIQTLKEEIEQSLTKRDEFEFLEKASKLRGISTKPVYIPEVELNHKLIKGIHQSTIDLKNELKQCIGRLQEPTPSSGDPGEHDPASTHKSTRP
notes: also called CC domain; coiled-coil (CC) dimerisation domain
binding result [3]: binds

B2: TRIM25 CC-m2 (domain or fragment, human, UniProt Q14258 189-379, looked up)
chain: ASLSQASADLEATLRHKLTVMYSQINGASRALDDVRNRQQDVRMTANRKVEQLQQEYTEMKALLDASETTSTRKIKEEEKRVNSKFDTIYQILLAKASEIQTLKEEIEQSLTKRDEFEFLEKASKLRGISTKPVYIPEVELNHKLIKGIHQSTIDLKNELKQCIGRLQEPTPSSGDPGEHDPASTHKSTRP
binding result [3]: binds

B3: TRIM25 CC-m4 (domain or fragment, human, UniProt Q14258 189-379, looked up)
chain: ASLSQASADLEATLRHKLTVMYSQINGASRALDDVRNRQQDVRMTANRKVEQLQQEYTEMKALLDASETTSTRKIKEEEKRVNSKFDTIYQILLKKKSEIQTLKEEIEQSLTKRDEFEFLEKASKLRGISTEPVEIPEVELNEELIKGIHQSTIDLKNELKQCIGRLQEPTPSSGDPGEHDPASTHKSTRP
binding result [3]: binds

GUAUAGUUCAACUAUAC (structured_RNA) [pre-let-7 stem (stem-fusion)]
binding result (TRIM25 PRY/SPRY [4]): binds

UUUUAUCUGAGUUGGAGGUGAAG (structured_RNA) [Lnczc3h7a-SL]
Kd (TRIM25 CC-PRY/SPRY [5]): 100 nM

UUAGUGGCAGACAAAGGCAUCGAGGCAGCCGCAGAAGUUGUCUGCGAAGU (structured_RNA) [RNA_50_motif1&2]
Kd (TRIM25 CC-PRY/SPRY [6]; hairpin with bulge): 3.5 nM

GUAUAGUUUAAAGAAUGGAUAACUAUAC (structured_RNA) [pre-let-7_modified]
Kd (TRIM25 CC-PRY/SPRY [7]): 180 nM
binding result (TRIM25 CC-PRY/SPRY-m9 [8]): no binding

GUAUAGUUUAAAAGGAGAUAACUAUAC (structured_RNA) [pre-let-7a-1@2 (pre-let-7)]
Kd (TRIM25 PRY/SPRY [9]): 4000 ± 1000 nM
Kd (TRIM25 CC-m2): 4000 ± 2000 nM
binding result (TRIM25 CC-m4): no binding
binding result (TRIM25 PRY/SPRY-m3): no binding
Kd (TRIM25 CC [10]): 3200 ± 700 nM
Kd (TRIM25 CC-PRY/SPRY [6]; hairpin): 62 ± 44 nM
binding result (TRIM25 CC-PRY/SPRY-m9 [11]): no binding

UAAAAGGAGAU (ssRNA) [pre-let-7 loop]
binding result (TRIM25 PRY/SPRY [12]): binds

AUGGCUAGCUGGAGCCACCCGCAGUUCG (structured_RNA) [28-mer]
Kd (TRIM25 PRY/SPRY [13]): 900 nM

GCAGGUCGGAUUAAGCCAUAGUACGGGAAAAACUAUGCUACCUG (structured_RNA) [DENV-SL]
Kd (TRIM25 CC-PRY/SPRY [14]): 14 nM
Kd (TRIM25 PRY/SPRY [15]): 420 nM
